Experimental data from paper PMC11559006, “Rab6a enables BICD2/dynein-mediated trafficking of human papillomavirus from the trans-Golgi network during virus entry” (mBio, 2024).
Ends that are not written are not given here.

Biological target: T1, HA-tagged constitutively active (CA) Rab6a mutant (Q72L) (UniProt P20340 2-208, Q72L)
T1 construct: Rab6a, amplified from EGFP-Rab6AQ72L (Addgene #49483); the forward primer puts ATG and the HA tag before the codons S-T-G-G (residue 2 onward), the reverse primer ends at the stop codon after ...GGCSC; The vector is called pCMV-FLAG; also called HA-tagged CA Rab6a; GTP-Rab6a; source: HEK293TT, transfected, purified (anti-HA agarose, eluted with HA peptide); not shown: HA, N-terminal, kept
Assay: pull-down; 5 µg biotinylated peptide incubated with purified protein (~20 nM FLAG-BICD2 or HA-tagged CA or DN Rab6a) in HN buffer (50 mM HEPES, 150 mM NaCl) with 0.1% Triton, 1 mM DTT, 2 h at 4°C; streptavidin magnetic beads; western blot for HA or FLAG
Settings: both partners purified

B1: biotinylated HPV16 L2 peptide, amino acids 434–461 (peptide)
peptide: SPQYTIIADAGDFYLHPSYYMLRKRRKR
modifications: also: further groups not given here
notes: HPV16 minor capsid protein L2, amino acids 434-461 of full-length HPV16 L2; also called L2 C; peptide 434–461; source: synthetic peptide, bought: GenScript or Promega
  binding result: binds
